According to publication PMC4604771, “A novel eurythermic and thermostale lipase LipM from Pseudomonas moraviensis M9 and its application in the partial hydrolysis of algal oil” (BMC Biotechnology, 2015):

Substrate: CCCCCCCC(=O)Oc1ccc([N+](=O)[O-])cc1
Experiment: p-nitrophenol release, Lineweaver-Burk plot
Type: biochemical, Pseudomonas moraviensis
Settings: 50 mM Tris-HCl, pH 8.0, 65 °C, 0.01-2 mM substrate

B1: LipM (Pseudomonas moraviensis) (protein)
chain: MGLFDYRNADGKALYSDAIALTLYAYAPTGEPLPATAWAPVAATALGYQGKVGPQGTFFGEQDGYTSAEAEVLGKYDAAGKLIGIGIAFRGTGGLGYSDTYGDMKNNLLAAFGPSDYASHYAKNAFDHLLKAVAAFAIANGIAAQDVLISGHSLGGLGVNSVAELSASHWGGFFKDANYIAFASPTQSSTGSNVLNIGYENDPVFRALDGTTFSSGSLGKHDGAHDSTTDNIVNFTDNYASTAQNLVPFSIVNPLNWSAHSSLGYADGLNRVIDSQFYALTHKDSTIIVSNLEEASRGKTWVEDLGRSGEPHVGSTLIIGTHSSDWLKGGSGNDFLEGLGGDDRFRDDGGFNILLGGQGHNTFELQKPLQNFSFANDGDGTLYVRDAYGGISLTRDIGALVSKEAGSWWGSKEITWGVTAKGLSNGSELTQYNHSLSGDGYGNALHASADGDWLFGLGGNDSLISDKGHVTFVGGAGNDVMTALGGNNTFLFSGAFGFDAVNGYQGNDKLVFMGVEGAGQGYDYKQHASQSGDDTVLKIGDYAVTLIGVGVANLSDSSIMFA
notes: pET-22b(+) NdeI/XhoI, His tag kept (C-terminal by vector)
For B1, the Km was 360 µM and the kcat was 35.7 s⁻¹.
